T1: GST::KIF14(901-1648) (UniProt Q15058 901-1648)
T1 construct: Cloned into pDEST15; source: E. coli, purified (glutathione sepharose 4B), kept on beads; not shown: GST, N-terminal, kept
T1 sequence (looked up): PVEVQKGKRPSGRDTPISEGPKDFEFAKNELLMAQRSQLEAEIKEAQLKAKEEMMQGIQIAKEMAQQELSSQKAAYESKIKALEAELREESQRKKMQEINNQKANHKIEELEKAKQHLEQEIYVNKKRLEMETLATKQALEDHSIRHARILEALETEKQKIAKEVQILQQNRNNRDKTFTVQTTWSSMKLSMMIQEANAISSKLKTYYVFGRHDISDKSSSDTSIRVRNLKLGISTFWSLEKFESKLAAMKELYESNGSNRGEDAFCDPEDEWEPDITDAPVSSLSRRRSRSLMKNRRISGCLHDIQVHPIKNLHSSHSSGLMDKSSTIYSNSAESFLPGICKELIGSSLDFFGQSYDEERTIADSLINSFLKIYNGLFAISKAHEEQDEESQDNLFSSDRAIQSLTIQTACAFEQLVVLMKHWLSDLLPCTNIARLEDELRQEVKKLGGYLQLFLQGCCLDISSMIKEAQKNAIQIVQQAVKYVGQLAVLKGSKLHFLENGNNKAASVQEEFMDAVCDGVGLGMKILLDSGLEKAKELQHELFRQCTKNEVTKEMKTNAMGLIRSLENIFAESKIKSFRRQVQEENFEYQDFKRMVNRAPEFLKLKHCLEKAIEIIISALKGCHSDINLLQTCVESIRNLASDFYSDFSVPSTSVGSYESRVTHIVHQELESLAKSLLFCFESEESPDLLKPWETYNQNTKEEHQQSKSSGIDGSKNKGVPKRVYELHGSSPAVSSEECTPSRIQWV


Key:
KIF14 901-1648 = KIF14 901-1648 (UniProt Q15058); experiment: GST pull-down of MBP-tagged fragment, western blot; settings: reference: fragment incubated without CDK1/cyclin B; sites S440
GST::KIF14(901-1648) = biological target: T1, GST::KIF14(901-1648); experiment: pull-down; GST-tagged KIF14 or MKLP1 fragment on glutathione sepharose beads, purified MBP::CIT-K fragment in solution (with or without prior incubation with CDK1/cyclin B or AURKB); NET-N+ buffer (50 mM Tris-HCl pH 7.4, 150 mM NaCl, 5 mM EDTA, 0.2% NP-40), 60 min at 4°C; washes with 250 mM NaCl; western blot; settings: both partners purified

| Molecule | binding against the reference (KIF14 901-1648) | binding result (GST::KIF14(901-1648)) |
| --- | --- | --- |
| Citron kinase (CIT-K) 420-585 (from UniProt O14578-4) fragment incubated with CDK1/cyclin B | same | – |
| MBP::CIT-K(420-585) (domain or fragment, human, UniProt O14578-4 420-585, looked up, contains S440; numbering of UniProt O14578-4; Cloned into pKM596; also called MBP::CC1 fragment containing S440; source: E. coli, purified (amylose resin, eluted with maltose)) SYSKALGILGRSESVVSGLDSPAKTSSMEKKLLIKSKELQDSQDKCHKMEQEMTRLHRRVSEVEAVLSQKEVELKASETQRSLLEQDLATYITECSSLKRSLEQARMEVSQEDDKALQLLHDIREQSRKLQEIKEQEYQAQVEEMRLMMNQLEEDLVSARRRSDLY | – | binds |
| MBP::CIT-K(420-585) phosphorylated by CDK1/cyclin B (pS440) (domain or fragment, human, UniProt O14578-4 420-585, looked up, phosphoserine at 440 (in vitro by CDK1/cyclin B, detected with the CIT-K pS440 antibody), numbering of UniProt O14578-4; source: E. coli, purified (amylose resin), then incubated with recombinant CDK1/cyclin B) SYSKALGILGRSESVVSGLDSPAKTSSMEKKLLIKSKELQDSQDKCHKMEQEMTRLHRRVSEVEAVLSQKEVELKASETQRSLLEQDLATYITECSSLKRSLEQARMEVSQEDDKALQLLHDIREQSRKLQEIKEQEYQAQVEEMRLMMNQLEEDLVSARRRSDLY | – | binds |

— publication PMC13282566, “Regulation of Citron kinase by CDK1 and Aurora B regulates midbody formation and stability” (Journal of Cell Science, 2026)
